The source of these data is paper PMC5089669, “Biocatalytic Properties and Structural Analysis of Eugenol Oxidase from Rhodococcus jostii RHA1: A Versatile Oxidative Biocatalyst” (Chembiochem, 2016).

Substrate in the series: C=CCc1cc(OC)c(O)c(OC)c1
As to the kind of experiment: purified protein. Format: biochemical, Rhodococcus jostii. The settings on record: Tris-HCl 50 mM, pH 7.5, 25 °C, O2 as co-substrate.

B1: Eugenol oxidase (EUGO) (Rhodococcus jostii RHA1) (protein)
chain: MTRTLPPGVSDERFDAALQRFRDVVGDKWVLSTADELEAFRDPYPVGAAEANLPSAVVSPESTEQVQDIVRIANEYGIPLSPVSTGKNNGYGGAAPRLSGSVIVKTGERMNRILEVNEKYGYALLEPGVTYFDLYEYLQSHDSGLMLDCPDLGWGSVVGNTLDRGVGYTPYGDHFMWQTGLEVVLPQGEVMRTGMGALPGSDAWQLFPYGFGPFPDGMFTQSNLGIVTKMGIALMQRPPASQSFLITFDKEEDLEQIVDIMLPLRINMAPLQNVPVLRNIFMDAAAVSKRTEWFDGDGPMPAEAIERMKKDLDLGFWNFYGTLYGPPPLIEMYYGMIKEAFGKIPGARFFTHEERDDRGGHVLQDRHKINNGIPSLDELQLLDWVPNGGHIGFSPVSAPDGREAMKQFEMVRNRANEYNKDYAAQFIIGLREMHHVCLFIYDTAIPEAREEILQMTKVLVREAAEAGYGEYRTHNALMDDVMATFNWGDGALLKFHEKIKDALDPNGIIAPGKSGIWSQRFRGQNL
notes: homodimer
In the case of B1, the Km – broadly, the concentration of substrate that gives half-maximal velocity – stood at 0.8 µM; the kcat (in general, the number of substrate molecules converted per active site and unit of time at saturation) stood at 0.49 s⁻¹.
